Test results reported in publication PMC9534319 (2022).

Target: h219 (VH9/VK2)
Test: BLI

B1: his tagged human LAIR1 recombinant protein (receptor)
chain: QEEDLPRPSISAEPGTVIPLGSHVTFVCRGPVGVQTFRLERDSRSTYNDTEDVSQASPSESEARFRIDSVREGNAGLYRCIYYKPPKWSEQSDYLELLVKESSGGPDSPDTEPGSSAGPTQRPSDNSHNEHAPASQGLKAEHLY
Question: For B1, which Kd is on record?
Answer: 0.66 nM
